Experimental data published in patent publication US20240279284A1 (KOREA ADVANCED INSTITUTE OF SCIENCE AND TECHNOLOGY, published 2024).

Experiments:
[1] = target: BCL-xL, endogenous, in K562, HCT-116, SW620, MEWO and A375 cancer cells (Homo sapiens (Human)) (UniProt Q07817); experiment: cell-based or functional assay
[2] = target: MCL-1, endogenous, in K562, HCT-116, SW620, MEWO and A375 cancer cells (Homo sapiens (Human)) (UniProt Q07820); experiment: cell-based or functional assay
[3] = target: T1, BCL-B (1-177;C30S/C138S), biotinylated, with C-terminal biotinylation sequence (UniProt Q9HD36 1-177); experiment: SPR, biotinylated BCL-B on CAP chip; target BCL-B
T1 construct: range 1-177
T1 sequence: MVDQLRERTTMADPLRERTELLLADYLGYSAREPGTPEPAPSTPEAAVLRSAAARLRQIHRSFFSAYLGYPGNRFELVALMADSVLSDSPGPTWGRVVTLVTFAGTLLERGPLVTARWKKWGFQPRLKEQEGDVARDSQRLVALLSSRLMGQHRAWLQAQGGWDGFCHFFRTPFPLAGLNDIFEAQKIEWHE
Procedure: (§1) SPR data were collected on an 8 K device (GE Healthcare). A Series S Biotin CAPture kit (GE Healthcare) was used to immobilize biotinylated anti-apoptotic BCL-2 proteins, and all experiments were conducted in HBS-EP+buffer solution (10 mM HEPES, 150 mM NaCl, 3 mM EDTA, 0.005% Surfactant P20; GE Healthcare). Biotinylated anti-apoptotic BCL-2 proteins were immobilized on the CAP chip until the response units reached 100. Serially diluted analytes were injected at a flow rate of 30 μl/min. Analytes were used at 20 nM for single concentration experiments. Dissociation constants (KD) and kinetic parameters (Kₐ and Kd) were estimated using Biacore 8 K evaluation software (GE Healthcare).

[4] = target: T2, BCL-W (1-164), biotinylated, with C-terminal biotinylation sequence (UniProt Q92843 1-164); experiment: SPR, biotinylated BCL-W on CAP chip; target BCL-W
T2 sequence: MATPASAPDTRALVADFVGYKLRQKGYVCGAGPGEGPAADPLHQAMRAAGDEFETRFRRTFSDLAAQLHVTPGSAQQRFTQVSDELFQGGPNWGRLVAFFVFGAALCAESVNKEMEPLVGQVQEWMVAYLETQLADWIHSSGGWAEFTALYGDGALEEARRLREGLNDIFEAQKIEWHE
Procedure: as §1

[5] = target: T3, MCL-1 (172-321), biotinylated, with C-terminal biotinylation sequence (Homo sapiens (Human), UniProt Q07820 172-321); experiment: SPR, MCL-1 immobilized, analyte series from 5 to 320 nM
T3 sequence (Q07820 other isoform, or with tags, fused parts or gaps): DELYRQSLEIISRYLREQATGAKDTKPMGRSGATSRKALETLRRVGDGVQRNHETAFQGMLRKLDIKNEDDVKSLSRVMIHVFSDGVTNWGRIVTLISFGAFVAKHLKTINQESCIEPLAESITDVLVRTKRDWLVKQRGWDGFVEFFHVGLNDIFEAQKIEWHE
Procedure: as §1

[6] = target: T4, BCL-xL (1-44:85-209), biotinylated, with C-terminal biotinylation sequence (Homo sapiens (Human), UniProt Q07817 1-209, biotin on the C-terminal biotinylation sequence … (co-expressed BirA)); experiment: SPR, BCL-xL immobilized, analyte series from 1.25 to 80 nM
T4 construct: Form immobilised on the CAP chip for SPR; Any purification tag from pJK hTx is not described
T4 sequence (Q07817 other isoform, or with tags, fused parts or gaps): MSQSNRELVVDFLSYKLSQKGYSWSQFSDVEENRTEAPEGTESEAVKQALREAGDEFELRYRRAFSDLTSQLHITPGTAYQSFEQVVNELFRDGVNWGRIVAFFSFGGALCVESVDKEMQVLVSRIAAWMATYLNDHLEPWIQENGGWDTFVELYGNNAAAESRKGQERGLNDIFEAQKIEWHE
Procedure: as §1

[7] = target: T3, MCL-1 (172-321), biotinylated, with …; experiment: SPR, ratio of KD values
Procedure: as §1

[8] = target: T5, BFL-1 (1-151;C4S/C19S), biotinylated, with C-terminal biotinylation sequence (UniProt Q16548 1-151); experiment: SPR, biotinylated BFL-1 on CAP chip; target BFL-1
T5 construct: range 1-151; also called BFL-1 (A1)
T5 sequence: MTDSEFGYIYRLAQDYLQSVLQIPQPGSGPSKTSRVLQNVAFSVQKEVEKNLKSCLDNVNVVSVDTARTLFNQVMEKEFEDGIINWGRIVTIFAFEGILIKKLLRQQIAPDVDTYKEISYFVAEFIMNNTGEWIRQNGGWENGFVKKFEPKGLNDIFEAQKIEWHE
Procedure: as §1

[9] = target: T3, MCL-1 (172-321), biotinylated, with …; experiment: SPR, biotinylated MCL-1 on CAP chip
Procedure: as §1

[10] = target: BCL-2 (1-34:chimeric loop:92-203), biotinylated, with C-terminal biotinylation sequence (UniProt P10415 1-34; P10415 92-203); experiment: SPR, biotinylated BCL-2 on CAP chip
Chain of BCL-2 (1-34:chimeric loop:92-203), biotinylated, with C-terminal biotinylation sequence (P10415 other isoform, or with tags, fused parts or gaps mutant): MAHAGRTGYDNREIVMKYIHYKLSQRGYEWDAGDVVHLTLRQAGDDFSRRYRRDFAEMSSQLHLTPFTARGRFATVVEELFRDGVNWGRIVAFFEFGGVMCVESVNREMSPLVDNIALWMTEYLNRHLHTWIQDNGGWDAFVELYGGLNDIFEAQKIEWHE
Procedure: as §1

[11] = target: T6, MCL-1 (172-321) (Homo sapiens (Human), UniProt Q07820 172-321); experiment: size-exclusion chromatography (Superdex 75 Increase 10/300 GL), qualitative binding assay
T6 sequence (Q07820 172-321): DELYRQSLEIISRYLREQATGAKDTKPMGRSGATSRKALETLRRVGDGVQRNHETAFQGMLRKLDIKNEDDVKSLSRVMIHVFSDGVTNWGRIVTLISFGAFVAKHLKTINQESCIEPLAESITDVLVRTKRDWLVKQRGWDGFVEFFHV

[12] = target: T4, BCL-xL (1-44:85-209), biotinylated, …; experiment: SPR, different analyte concentrations, biotinylated BCL-xL on CAP chip
Procedure: as §1

[13] = target: T4, BCL-xL (1-44:85-209), biotinylated, …; experiment: SPR, ratio of KD values
Procedure: as §1

[14] = target: T4, BCL-xL (1-44:85-209), biotinylated, …; experiment: SPR, biotinylated BCL-xL on CAP chip
Procedure: as §1

[15] = target: T6, MCL-1 (172-321); experiment: crystal structure
Procedure: Crystals were obtained by the hanging-drop vapor diffusion method at 20° C. […] The crystals were immersed briefly in a cryoprotectant solution. […] X-ray diffraction datasets were collected on beamline 5C at Pohang Accelerator Laboratory, South Korea. […] Then, automatic model building into the electron densities and structure refinement were performed using the PHENIX software suit. […] Iterative rounds of manual model building and refinement were carried out using the programs COOT and PHENIX. All structures were illustrated using the PYMOL software.

[16] = target: T4, BCL-xL (1-44:85-209), biotinylated, …; experiment: comparison of KD values (SPR)
[17] = target: T3, MCL-1 (172-321), biotinylated, with …; experiment: comparison of KD values (SPR)

Chain of BCL-xL, endogenous, in K562, HCT-116, SW620, MEWO and A375 cancer cells (Homo sapiens (Human)) (Q07817 whole entry): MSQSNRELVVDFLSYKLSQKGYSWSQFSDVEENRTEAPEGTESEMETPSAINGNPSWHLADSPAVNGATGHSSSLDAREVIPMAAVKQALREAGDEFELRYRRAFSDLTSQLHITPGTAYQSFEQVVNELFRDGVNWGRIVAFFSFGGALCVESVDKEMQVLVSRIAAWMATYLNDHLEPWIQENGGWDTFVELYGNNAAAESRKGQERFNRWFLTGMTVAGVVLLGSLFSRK

B1: 4H_αBM_3_CTS, 3×FLAG-tagged, expressed in cancer cell lines by lentivirus (designed binder, not shown: small tags and cut ends)
chain: MDAKKVAKKAAIQAARRITELAQVLVELLKEALKLDLTQEMRKKLIERYAAAIIRAIGDINNAIYQAKQEAEKLKKAGLVDSDQLDALLRALDELQKVASKAANQLGRLFEEALKRLDKDNGGEEEKDRTAKWFEFEARAIELALRLAAIGDVFDLEKEWRKLKPRMVILRLLRYIVRLVWRMH
Question: For B1, which cell viability (WST-1), A375 cells [1] is on record?
Answer: Its cell viability (WST-1), A375 cells is 11%.

Question: What about the cell viability (WST-1), HCT-116 cells [1] of the same binder?
Answer: Its cell viability (WST-1), HCT-116 cells is 50%.

Question: And the cell viability (WST-1), K562 cells [1]?
Answer: Its cell viability (WST-1), K562 cells is 33%.

Question: And the cell viability (WST-1), MEWO cells [1]?
Answer: Its cell viability (WST-1), MEWO cells is 33%.

Question: And the cell viability (WST-1), SW620 cells [1]?
Answer: The cell viability (WST-1), SW620 cells was 27%.

Question: What about the cell viability (WST-1), A375 cells [2] of the same binder?
Answer: The cell viability (WST-1), A375 cells was 11%.

Question: And the cell viability (WST-1), HCT-116 cells [2]?
Answer: Its cell viability (WST-1), HCT-116 cells is 50%.

Question: And the cell viability (WST-1), K562 cells [2]?
Answer: The cell viability (WST-1), K562 cells was 33%.

Question: What about the cell viability (WST-1), MEWO cells [2] of the same binder?
Answer: Its cell viability (WST-1), MEWO cells is 33%.

Question: What about the cell viability (WST-1), SW620 cells [2] of the same binder?
Answer: Its cell viability (WST-1), SW620 cells is 27%.

B2: 4H_αBM_2 (I143L/I54E/G58E) (designed binder)
chain: MDAKKVAKKAAIQAARRITELAQVLVELLKEALKLDLTQEMRKKLIERYAAAIERAIEDINNAIYQAKQEAEKLKKAGLVDSDQLDALLRALDELQKVASKAANQLGRLFEEALKRLDKDNGGEEEKDRTAKWFEFEARAIELALRLAAIGDVFDLEKEWRKLK
notes: also called 4H_αBM_3 (I54E/G58E)
Question: What does the source list for B2?
Answer: Kd [3]: 146 nM; Kd [4]: 1.59 nM; Kd [5]: 113 nM; Kd [6]: 0.82 nM; fold reduced affinity (against 4H_αBM_2 (I54E/G58E)) [7]: ~7 fold; Kd [8]: 16.4 nM; Kd [9]: 133 nM; Kd [10]: 2.04 nM

B3: 4H_αBM_1 (designed binder)
chain: MDAKKVAKKAADQAANRIRELAQVLVELLKEALKLDLTQEMRKKLIERYAAAIIRAIGDINNAIYQAKQEAEKLKKAGLVDSDQLDALLRALDELQKVASKAANQLGRLFEEALKRLDKDNGGEEEKDRTAKWFEFEARAIAIALTLAAIGDVFDLEKEWRKLK
notes: also called D81
Question: Does B3 bind [11]?
Answer: Result: binds

Question: And the Kd [12]?
Answer: The Kd was 8.57 nM.

B4: 4H_αBM_2 (designed binder)
chain: MDAKKVAKKAAIQAARRITELAQVLVELLKEALKLDLTQEMRKKLIERYAAAIIRAIGDINNAIYQAKQEAEKLKKAGLVDSDQLDALLRALDELQKVASKAANQLGRLFEEALKRLDKDNGGEEEKDRTAKWFEFEARAIEIALRLAAIGDVFDLEKEWRKLK
Question: What does the source list for B4?
Answer: fold stronger binding than 4H_αBM_1 [13]: 40 fold; Kd [14]: 0.21 nM; binding result [15]: binds

B5: 4H_αBM_3 (designed binder)
chain: MDAKKVAKKAAIQAARRITELAQVLVELLKEALKLDLTQEMRKKLIERYAAAIIRAIGDINNAIYQAKQEAEKLKKAGLVDSDQLDALLRALDELQKVASKAANQLGRLFEEALKRLDKDNGGEEEKDRTAKWFEFEARAIELALRLAAIGDVFDLEKEWRKLK
notes: also called 4H_αBM_2 (I143L)
Question: B5 was tested. Which “fold higher binding affinity than human BIM BH3” value [16] did it give?
Answer: The value was over 8 fold.

Question: And the “fold higher binding affinity than human BIM BH3” value [17]?
Answer: The value was over 8 fold.

B6: 4H_αBM_2 (I54E/G58E) (designed binder)
chain: MDAKKVAKKAAIQAARRITELAQVLVELLKEALKLDLTQEMRKKLIERYAAAIERAIEDINNAIYQAKQEAEKLKKAGLVDSDQLDALLRALDELQKVASKAANQLGRLFEEALKRLDKDNGGEEEKDRTAKWFEFEARAIEIALRLAAIGDVFDLEKEWRKLK
notes: also called 4H_αBM_2 (154E/G58E)
Question: With B6 as the binder, how does the Kd [9] read?
Answer: Its Kd is 19.2 nM.
